Tests used:
[1] = biological target: His6-Sep fusion protein from construct BspA-6xHis-Sep (Lactobacillus fermentum BR11); assay: whole cell ELISA for the His6 epitope on L. fermentum cells with BspA-6xHis-Sep against parent BR11 cells
[2] = biological target: His6-Sep fusion protein from construct BspA-6xHis-Sep (Lactobacillus fermentum BR11); assay: whole cell ELISA for the His6 epitope on L. fermentum cells with BspA-6xHis-Sep; parent BR11 cells gave 0.0168±0.0007

anti-His5 monoclonal antibody (Qiagen, Hilden, Germany)
fold signal over L. fermentum BR11 parent cells [1]: 1.8 fold | A450nm signal per OD600 nm unit of cells (A450nm per OD600 nm unit of cells) [2]: 0.0302
